Data reported in patent publication US20100021480A1, “BIOACTIVE SUBSTANCE-BLOOD PROTEIN CONJUGATE AND STABILIZATION OF A BIOACTIVE SUBSTANCE USING THE SAME” (priority 2005, published 2010).

How the values were obtained:
[1] = biological target: activated albumin 21 (human serum albumin whose Cys34 free thiol is substituted by a disulfanyl group with aldrithiol) (human) (UniProt P02768); assay: albumin binding test: 50 µl of 1 mM Compound 15 with 40 µl of 1 mM activated albumin, HPLC of supernatant (unbound peptide)
[2] = biological target: activated albumin 21 (human serum albumin whose Cys34 free thiol is substituted by a disulfanyl group with aldrithiol) (human) (UniProt P02768); assay: albumin binding test: 50 µl of 1 mM Compound 15 with 50 µl of 1 mM activated albumin, HPLC of supernatant (unbound peptide)
[3] = biological target: activated albumin 21 (human serum albumin whose Cys34 free thiol is substituted by a disulfanyl group with aldrithiol) (human) (UniProt P02768); assay: albumin binding test: 50 µl of 1 mM Compound 15 with 40 µl of 1 mM activated albumin in 100 µl PBS, 37 C 30 min, methanol precipitation, HPLC of supernatant (unbound peptide)
[4] = biological target: activated albumin 21 (human serum albumin whose Cys34 free thiol is substituted by a disulfanyl group with aldrithiol) (human) (UniProt P02768); assay: albumin binding test: 20 µl of 1 mM Compound 15 with 50 µl of 1 mM activated albumin, HPLC of supernatant (unbound peptide)
[5] = biological target: activated albumin 21 (human serum albumin whose Cys34 free thiol is substituted by a disulfanyl group with aldrithiol) (human) (UniProt P02768); assay: albumin binding test: 20 µl of 1 mM Compound 15 with 50 µl of 1 mM activated albumin in 100 µl PBS, 37 C 30 min, methanol precipitation, HPLC of supernatant (unbound peptide)
[6] = biological target: activated albumin 21 (human serum albumin whose Cys34 free thiol is substituted by a disulfanyl group with aldrithiol) (human) (UniProt P02768); assay: albumin binding test: 40 µl of 1 mM Compound 15 with 50 µl of 1 mM activated albumin, HPLC of supernatant (unbound peptide)
[7] = biological target: activated albumin 21 (human serum albumin whose Cys34 free thiol is substituted by a disulfanyl group with aldrithiol) (human) (UniProt P02768); assay: albumin binding test: 40 µl of 1 mM Compound 15 with 50 µl of 1 mM activated albumin in 100 µl PBS, 37 C 30 min, methanol precipitation, HPLC of supernatant (unbound peptide)
[8] = biological target: activated albumin 21 (human serum albumin whose Cys34 free thiol is substituted by a disulfanyl group with aldrithiol) (human) (UniProt P02768); assay: albumin binding test: 50 µl of 1 mM Compound 15 with 50 µl of 1 mM activated albumin in 100 µl, 37 C 30 min, methanol precipitation, HPLC of supernatant (unbound peptide)

Chain of activated albumin 21 (human serum albumin whose Cys34 free thiol is substituted by a disulfanyl group with aldrithiol) (human) (P02768 25-609 limits assumed): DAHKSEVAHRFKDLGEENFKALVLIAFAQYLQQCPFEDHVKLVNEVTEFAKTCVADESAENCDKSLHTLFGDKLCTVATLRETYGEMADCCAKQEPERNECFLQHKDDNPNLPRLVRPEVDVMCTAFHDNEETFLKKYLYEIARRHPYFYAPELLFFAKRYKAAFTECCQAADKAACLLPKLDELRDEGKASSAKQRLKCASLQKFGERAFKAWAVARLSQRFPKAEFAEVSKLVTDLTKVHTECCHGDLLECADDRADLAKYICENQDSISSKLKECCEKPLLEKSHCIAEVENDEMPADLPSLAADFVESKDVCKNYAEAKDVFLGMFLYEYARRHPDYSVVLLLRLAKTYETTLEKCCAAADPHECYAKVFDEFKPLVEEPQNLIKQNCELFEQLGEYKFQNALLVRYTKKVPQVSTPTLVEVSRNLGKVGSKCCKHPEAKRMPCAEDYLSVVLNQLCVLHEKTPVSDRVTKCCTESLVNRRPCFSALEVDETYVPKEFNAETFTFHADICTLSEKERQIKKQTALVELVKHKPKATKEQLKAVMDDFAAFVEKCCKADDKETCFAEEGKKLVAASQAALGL

PA 20.6 min/4.4M (peak area against that of 10 µl Compound 15 alone) [1]: 4
PA 20.6 min/4.4M (peak area against that of 10 µl Compound 15 alone) [2]: 3.3
PA 20.6 min (HPLC peak area of Compound 15 left in the supernatant) [3]: 1.79e+07 peak area
PA 20.6 min/4.4M (peak area against that of 10 µl Compound 15 alone) [4]: 0.3
PA 20.6 min (HPLC peak area of Compound 15 left in the supernatant) [5]: 1.3e+06 peak area
PA 20.6 min/4.4M (peak area against that of 10 µl Compound 15 alone) [6]: 2.2
PA 20.6 min (HPLC peak area of Compound 15 left in the supernatant) [7]: 9.8e+06 peak area
PA 20.6 min (HPLC peak area of Compound 15 left in the supernatant) [8]: 1.47e+07 peak area
Substance: Compound 15: Leuprolide-GSG-Lys-[ε-AEEA-CO-(CH2)2-SH]-NH2.2TFA (peptide)
